The nature of one data set: Solubility. In kind it is physicochemical.
Data set [1] relates to Fusarium alkaline protease. The data set can be described thus: Fusarium alkaline protease-casein system. The class given is biochemical. Particulars: 50% inhibition of 4 μg of Fusarium alkaline protease; casein substrate, pH 10.5. On the procedure: 4. fusarium crystalline alkaline protease (U.S.P. No. 3652399)
(§1) Into a test tube are poured 1 ml of a casein solution [2%, buffer (3)], 0.5 ml of buffer (3), and 0.4 ml of a plasminostreptin solution of varying concentration and after the addition of 0.1 ml of either a Fusarium alkaline protease solution [40 μg/ml, buffer (3)] or Nagarse solution [100 μg/ml, buffer (3)], the mixture is blended well and allowed to stand under conditions similar to those described for the plasmin-casein system. Thereafter, also in the same manner as described above, the amount of plasminostreptin required for a 50% inhibition of the activity of 4 μg of Fusarium alkaline protease and 10 μg of Nagarse in the absence of plasminostreptin is determined, respectively, and indicated in units of ID50.

The target in a further data set is T1, Trypsin (Bos taurus, UniProt P00760).
T1 construct: purchased Sigma Type III
T1 sequence (P00760 24-246): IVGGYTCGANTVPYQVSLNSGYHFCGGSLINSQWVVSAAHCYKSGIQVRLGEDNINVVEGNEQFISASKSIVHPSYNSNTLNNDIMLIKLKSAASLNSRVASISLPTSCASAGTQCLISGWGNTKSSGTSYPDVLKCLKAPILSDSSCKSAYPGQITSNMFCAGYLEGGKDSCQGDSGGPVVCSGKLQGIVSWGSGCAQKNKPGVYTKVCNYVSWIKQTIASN
Put plainly: Trypsin-casein system. In kind it is biochemical. Particulars: 50% inhibition of 10 μg of trypsin; casein substrate. The protocol:
3. Trypsin (Sigma, crystalline, Type III)
Into a test tube are poured 1 ml of a casein solution [2%, buffer (2)], 0.5 ml of buffer (2) and 0.3 ml of a plasminostreptin solution of varying concentrations and after the addition of 0.2 ml of a trypsin solution [50 μg/ml, buffer(2)], the mixture is blended well and allowed to stand under conditions similar to those described for the plasmin-casein system. Thereafter, also in the same manner as described above, the amount of plasminostreptin required for a 50% inhibition of the activity of 10 μg of trypsin in the absence of plasminostreptin is determined and indicated in units of ID50.

Data set [2] concerns the target T2, plasmin-UK (Homo sapiens, UniProt P00747).
T2 construct: purchased Midorijuji
Put plainly: Plasmin-casein system. In kind it is biochemical. Particulars: 50% inhibition of 0.4 casein units of plasmin-UK; casein substrate. The protocol: (§2) 2. Plasmin - UK (Midorijuji, urokinase-activated plasmin)
3. plasmin-casein system: Into a test tube are poured 1 ml of casein solution [4%, buffer (2)], 0.5 ml of buffer (2) and 0.3 ml of a plasminostreptin solution of varying concentrations, followed by the addition of 0.2 ml of plasmin-UK solution [2 casein units/ml, buffer (2)]. The mixture is blended well and allowed to stand at 37° C for 20 minutes. The reaction is terminated by the addition of 2 ml of 1.7 M perchloric acid and the system is allowed to stand at room temperature for another 1 hour. The reaction mixture is filtered through a filter paper and the absorbance of the resulting filtrate at 280 mμ is measured.
The plasmin-inhibiting activity of plasminostreptin is determined and indicated as follows.
Thus, the amount of plasminostreptin is determined which is required to effect a 50% inhibition of the activity of 0.4 casein units of plasmin-UK in the absence of plasminostreptin and is shown in units of ID50.
Target sequence in this assay (P00747 581-810 limits assumed): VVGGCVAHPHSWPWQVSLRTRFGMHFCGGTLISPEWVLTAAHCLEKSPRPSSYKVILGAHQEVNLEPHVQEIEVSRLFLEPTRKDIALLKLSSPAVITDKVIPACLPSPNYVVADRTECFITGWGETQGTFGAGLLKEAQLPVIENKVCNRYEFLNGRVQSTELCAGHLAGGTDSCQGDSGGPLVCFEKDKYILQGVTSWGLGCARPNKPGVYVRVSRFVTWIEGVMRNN
Target sequence in this assay (P00747 97-580 partner limits assumed): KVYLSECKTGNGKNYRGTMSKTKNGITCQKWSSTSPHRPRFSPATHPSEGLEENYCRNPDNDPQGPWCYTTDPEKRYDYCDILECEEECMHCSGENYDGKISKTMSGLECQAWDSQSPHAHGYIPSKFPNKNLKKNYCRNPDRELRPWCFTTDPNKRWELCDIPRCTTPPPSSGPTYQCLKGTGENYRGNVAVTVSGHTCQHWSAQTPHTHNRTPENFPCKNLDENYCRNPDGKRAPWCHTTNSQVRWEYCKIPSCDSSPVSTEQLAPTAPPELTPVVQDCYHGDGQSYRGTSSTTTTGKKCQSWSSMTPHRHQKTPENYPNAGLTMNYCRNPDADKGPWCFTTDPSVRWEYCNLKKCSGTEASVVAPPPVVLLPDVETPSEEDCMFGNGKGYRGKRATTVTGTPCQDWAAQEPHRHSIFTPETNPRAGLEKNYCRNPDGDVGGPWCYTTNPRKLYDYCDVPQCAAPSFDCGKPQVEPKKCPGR

For data set [3], the target named is T2, plasmin-UK. The data set can be described thus: Plasmin activity of rat blood plasma before and after intravenous administration. The class given is in vivo. Particulars: rats, 0.8 mg intravenous, 1 hour after administration; result in words. The protocol: From each of five rats (male, SD, 7 weeks old), blood samples are taken before the administration of plasminostreptin and also 1 hour after the intravenous administration of 0.8 mg plasminostreptin. The plasma is separated from each of the blood samples and the abovementioned plasmin-UK solution is added in each plasma sample to various concentrations.
Immediately thereafter, the activity of plasmin in each plasma sample is determined using casein as substrate. The plasmin activity of blood plasma samples from each rat before and after the administration of plasminostreptin are compared.
Target sequence in this assay (P00747 581-810 limits assumed): as the sequence (P00747 581-810 limits assumed) above
Target sequence in this assay (P00747 97-580 limits assumed): as the sequence (P00747 97-580 partner limits assumed) above

For another data set, the target named is T3, Nagarse (Bacillus amyloliquefaciens, UniProt P00782).
T3 construct: purchased Nagase Sangyo
T3 sequence (P00782 108-382): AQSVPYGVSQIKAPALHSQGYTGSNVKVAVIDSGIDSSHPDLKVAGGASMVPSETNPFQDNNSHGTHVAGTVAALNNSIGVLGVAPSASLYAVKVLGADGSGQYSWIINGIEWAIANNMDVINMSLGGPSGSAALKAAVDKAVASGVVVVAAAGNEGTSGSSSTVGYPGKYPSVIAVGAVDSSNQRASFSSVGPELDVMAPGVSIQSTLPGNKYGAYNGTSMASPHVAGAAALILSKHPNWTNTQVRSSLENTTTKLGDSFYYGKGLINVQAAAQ
Put plainly: Nagarse-casein system. In kind it is biochemical. Particulars: 50% inhibition of 10 μg of Nagarse; casein substrate, pH 10.5. On the procedure: 5. Nagarse(crystalline protease, Nagase Sangyo)
as §1

Data set [4] can be described thus: Isoelectric point by isoelectric focussing method. The class given is physicochemical. An excerpt:
6. Isoelectric point: about 6.3 as determined by the isoelectric focussing method Acta Chemica Scandinavica,20, 820 (1966)

For another data set, the target named is T4, Plasmin-SK (Homo sapiens, UniProt P00747).
T4 construct: made in house
Put plainly: Plasmin-fibrin system (fibrin plate method). The class given is biochemical. The protocol: 1. Plasmin-SK: The euglobulin fraction obtained from human blood plasma is dissolved in buffer (1) which is described below and then, activated with streptokinase (Lederle) [Annual Report of Takeda Research Laboratories, 28, 140 (1969)].
1. Plasmin-fibrin system (fibrin plate method): Ten ml of a fibrinogen solution (1%, buffer (1)) is placed in a petri dish (9 cm in diameter) and gelled by the addition of 0.2 ml of thrombin [50 J. P. units (Japanese Pharmacopeia units)/ml, 0.145 M sodium chloride]. The gel is allowed to stand at 30° C for 30 minutes to prepare a fibrin plate. Meanwhile, paper discs (8mm in diameter, water-absorbing capacity: 0.025 ml) are dipped in a plasminostreptin solution of varying concentrations and allowed to dry on a filter paper in the air.
Then, 0.015 ml of a plasmin-SK solution is dropped onto each of the discs, which is placed on the above fibrin plate. After the system is allowed to stand at 37° C for 5 to 10 hours, the formation of lyzed zone in evaluated. The plasmin-inhibiting activity of plasminostreptin is indicated as the concentration of plasminostreptin solution required for a complete inhibition of fibrinolysis.

Data set [5] can be described thus: Stability (heat treatment, remaining activity). In kind it is physicochemical. Particulars: 30 minutes' treatment at pH 4-9 and at 100° C. On the procedure:
More than 50 percent of the original activity remains intact even after a 30 minutes' treatment at pH 4-9 and at 100° C.

Data set [6] concerns the target T2, plasmin-UK. Put plainly: Plasmin-fibrin system (determination of clot lysis time). In kind it is biochemical. Particulars: 50% inhibition of 0.08 casein units of plasmin-UK. On the procedure: as §2
Target sequence in this assay (P00747 581-810 limits assumed): as the sequence (P00747 581-810 limits assumed) above
Target sequence in this assay (P00747 97-580 partner limits assumed): as the sequence (P00747 97-580 partner limits assumed) above
(2) Plasmin-fibrin system (determination of clot lysis time): Into a small test tube are poured 0.4 ml of a fibrinogen solution (0.25%, buffer (1)), 0.3 ml of buffer (1) and 0.1 ml of plasminostreptin solution of varying concentrations, followed by the addition of 0.1 ml of a plasmin-UK solution [0.8 casein units/ml, buffer (1)]. The mixture in blended well and immediately thereafter, 0.1 ml of a thrombin solution (50 J. P. units/ml, 0.145 M sodium chloride) is added. The resulting gel is allowed to stand at 37° C and the time necessary to lyse the clot is measured. The plasmin-inhibiting activity of plasminostreptin is determined by the procedure set forth in Biochimica Biophysica Acta. 214, 411 (1970). Thus, the amount of plasminostreptin which is required for a 50% inhibition of the activity of 0.08 casein units of plasmin-UK, which occurs in the reaction mixture, is determined from the concentration of plasminostreptin which will double the clot lysis time in the absence of plasminostreptin, and the above amount is indicated in units of ID50.

In a further data set the test system is mice. Put plainly: Acute toxicity tests in mice. In kind it is in vivo. An excerpt: The toxicity of plasminostreptin is extremely low and its LD50 values as determined by acute toxicity tests in mice are more than 5 g/kg orally, more than 5 g/kg intraperitoneally and 2 to 3 g/kg, intravenously.
Data set [7] addresses T5, kallikrein (Beyer, Depot - Padutin) (Sus scrofa, UniProt P00752).
T5 construct: purchased Beyer (so in the source); Bayer) Depot - Padutin
The data set can be described thus: Kallikrein esterase activity against benzoylarginine ethyl ester. The class given is biochemical. Particulars: result in words.

T4 sequence (P00747 581-810 limits assumed): as the sequence (P00747 581-810 limits assumed) above
T4 sequence (P00747 97-580 partner limits assumed): as the sequence (P00747 97-580 partner limits assumed) above
T5 sequence (P00752 8-246): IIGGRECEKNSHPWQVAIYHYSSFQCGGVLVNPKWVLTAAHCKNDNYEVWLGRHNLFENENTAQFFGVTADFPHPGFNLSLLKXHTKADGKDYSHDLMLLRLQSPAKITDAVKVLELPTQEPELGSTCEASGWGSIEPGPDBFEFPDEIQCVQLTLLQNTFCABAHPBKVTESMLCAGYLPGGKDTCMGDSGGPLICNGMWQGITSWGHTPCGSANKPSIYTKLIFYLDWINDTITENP

For plasminostreptin, the results for the “Solubility in aqueous solution” value in “Solubility” (ammonium sulfate at 60% saturation) and in “Solubility” (neighborhood of pH 6) were “almost completely precipitated” and “solubility drops”, respectively. Besides, the Solubility result in “Solubility” (glacial acetic acid, alcohols, acetone, chloroform, ether, hexane and other organic solvents) is “only sparingly soluble”; in the data set “Solubility” (pyridine), “slightly soluble”; in the data set “Solubility” (water and aqueous ammonia) it was “Soluble”. For the same substance, the ID50 is less than 6 µg in [1]; less than 5 µg at Trypsin; less than 10 µg on plasmin-UK [2]; less than 5 µg at Nagarse; less than 10 µg at plasmin-UK [6]. For the same substance, the “plasmin activity of blood plasma after administration” value at plasmin-UK [3] is given as “significantly inhibited”. In addition, in data set [4], the Isoelectric point entry is reported as “about 6.3”. Further, on Plasmin-SK (fibrin plate method, crystalline product of Example 1), the “concentration for a complete inhibition of fibrinolysis” value was 20 µg/mL. Further, the “Concentration for complete inhibition” value on Plasmin-SK (fibrin plate, complete inhibition of fibrinolysis, Table 3) is less than 30 µg/mL. Moreover, the “original activity remaining intact” value in data set [5] is on record as “More than 50%”. Further, the LD50 result in the data set on mice (intraperitoneally) and in the data set with mice (orally) was “more than 5 g/kg” in each case. For the same substance, in [7], the “Inhibition of the activity of kallikrein” value is listed as “can hardly be detected”.

The record behind these values is patent US4014860A, “Plasminostreptin (enzyme inhibitor) and method for producing it from streptomyces” (Takeda Chemical Industries, Ltd., priority 1972, dated 1977).
